Assay results published in a protein production outcome set (Wang et al. 2014).

Assay: label from the status in PepcDB records
In the case of “MTVELLNEPLSRYPAFDTADPEELRQALSSVYGAKLVEGPIAADFHARSNFVQLDDIALAFGVGTGSIAVEFPEGECARLQIALSGQFTTRSGGTSTAINARQAGIISPGRNARTEYGQNYSFTLLRVSTSALERKLTTLLGCKPKASLEFEPAANNEAPQVVNLRRMLCFLANQLNCSPLPPVVLAELQEAITLLFLSAFRHNYSRQLERESHGIAPKHVRQVEEYIEANWMRPITIEKLTALTGISSRGIFKAFQRSRGYSPMAFAKRVRLQHAHNLLSDGATPTTVTAAALSCGFSNLGHFARDYRDMFGEKPSETLQRARP”, the protein production is reported as “failed”. For “MTVGIIGAGNIGGAFATALGKAGIEAVIANSRGPESLTALVSKLGSTIRAGSVPEAAAQAIVLVAVPWSKIPGALAGLNFGDRIVIDANNSIEAPLYRPADLGGRTSTDIFTALVPGARVVKAFNHLTPKQLSGDPHSEGGRRVLFYSGDDMRAKAEVGAIIDRIGFFGIDLGGLPVGSQLLQFPGGPLPALNLVKFD”, the protein production was “failed”. In the case of “MTVKHLAIAPEGKKSLRLSWTNVAFFTTIHALALLAPWFFSWSALGLLLFLHWLFGSIGICLGYHRLLSHKSFQVPKWLEYAIATIGALAMQGGPIFWIGGHRQHHAHTEDVYLDPYSSQRGFWWSHMLWILYPRSEFFDYEIYQKYAPDLARQPFYRWLDRYFLLLQIPFGLMLYAIGGWSFVIYGVVLRAVLLWHSTWFVNSATHMWGYRTFNADDNARNLWWVSIVTYGEGWHNNHHTYPNVAKAGFQWWEVDVTWWSIKLLQTLGLAKKVVLPPSQRMNQG”, the protein production is reported as “failed”. For “MTVLDKVNDPTDIKALTPLELEELATNVRDAILNRVSQYPGGHLGPNLGVVEMTIALHKVFNSPVDKLIWDVSHQSYPHKVLTGRKEFFTDKDKFSGTTGYTDPEENEHDFIRVGHTSTSIATAMGYALARDVQGKKENIVAIIGDGALSGGLAFEGLDGAGTLNGNLIIIVNDNEMAITENHGGIYQHLADLRASKGTSANNLFKSFGLDYRYLEEGNDIQSLIVLFESVKDINRPIVLHIHIEKGHGYKPAVENKEGMHQVFAPFDIATGQPVNSSTNIVRSYNNVFLDFMEEKLAKGDNLIAINAAIPMFFGLSQFAKNHPKNYVDGGIAEQYTVTLGGAIAAAGTRAIIFQNATFLQRAYDQLNHDLALNKEPAIVIISNSQIGGTNDTHQGSFVYSQTSNIPNVIDLAATSEEDLFAMLNWAYNQHEHPVFIHLPEHTLENRPTKITDFSKPQYEVVKSGEKVAILGLGAMLEKAENVAEELEKSGFNPTVVNPFFANLLDVAALDKLSETHGLFVTIEDGTKDGGFGQKVATYLASKGIKTLVYGADTEFIDAVPKEELYNRYHIRPELMATDIIEATKESKGPNFFKKIFSKLEHHHHHH”, the protein production was “not failed”. With “MTVLIIGMGNIGKKLVELGNFEKIYAYDRISKDIPGVVRLDEFQVPSDVSTVVECASPEAVKEYSLQILKNPVNYIIISTSAFADEVFRERFFSELKNSPARVFFPSGAIGGLDVLSSIKDFVKNVRIETIKPPKSLGLDLKGKTVVFEGSVEEASKLFPRNINVASTIGLIVGFEKVKVTIVADPAMDHNIHIVRISSAIGNYEFKIENIPSPENPKTSMLTVYSILRTLRNLESKIIFG” the protein production was “not failed”. For “MTVPEEAQTLIGKHYRAPDHFLVGREKIREFAVAVKDDHPTHYSEPDAAAAGYPALVAPLTFLAIAGRRVQLEIFTKFNIPINIARVFHRDQKFRFHRPILANDKLYFDTYLDSVIESHGTVLAEIRSEVTDAEGKPVVTSVVTMLGEAAHHEADADATVAA”, the protein production was “failed”. For “MTVPHPESVGEPGIAVRAPARRRSAWHGQAPVVAVVALGGGIGGTARYAAALLWPTQSGGFPWTTFWVNVVGCAVIGVFMVVITDVWPAHRLVRPFFGTGVLGGFTTFSTYAVDIQKLVDAGHPRTALAYLAATLLAALAAVRLAATAARRVLVRRRR”, the protein production was “failed”. For “MTVPLYKQIASLIEDSIVDGTLSIDQRVPSTNELAAFHRINPATARNGLTLLVEAGILYKKRGIGMFVSAQAPALIRERRDAAFAATYVAPLIDESIHLGFTRARIHALLDQVAESRGLYK”, the protein production was “failed”. In the case of “MTVRTRVTDLLEIEHPILMGGMAWAGTPTLAAAVSEAGGLGIIGSGAMKPDDLRKAISELRQKTDKPFGVNIILVSPWADDLVKVCIEEKVPVVTFGAGNPTKYIRELKENGTKVIPVVASDSLARMVERAGADAVIAEGMESGGHIGEVTTFVLVNKVSRSVNIPVIAAGGIADGRGMAAAFALGAEAVQMGTRFVASVESDVHPVYKEKIVKASIRDTVVTGAKLGHPARVLRTPFARKIQEMEFENPMQAEEMLVGSLRRAVVEGDLERGSFMVGQSAGLIDEIKPVKQIIEDILKEFKETVEKLRGYIEE”, the protein production is reported as “not failed”.
